± gives the uncertainty stated by the source.

These results are taken from the Human Domainome abundance scans (Beltran et al. 2025).

B1: POU domain, class 3, transcription factor 3, residues 320 to 388; numbered along this chain, P20264 (parent)
chain: DDLEQFAKQFKQRRIKLGFTQADVGLALGTLYGNVFSQTTICRFEALQLSFKNMCKLKPLLNKWLEEAD
B2: Metastasis-associated protein MTA3, residues 265 to 317; numbered along this chain, Q9BTC8 (parent)
chain: RDEMEEWSASEASLFEEALEKYGKDFNDIRQDFLPWKSLTSIIEYYYMWKTTD

In the first data set the parent is B1. Description: abundance fitness (aPCA) (normalised: wild type 0, dead -1); higher = more abundant; growth selection in yeast, the domain comes from the species named. The conditions noted are these: Homo sapiens.
As to DDVEQFAKQFKQRRIKLGFTQADVGLALGTLYGNVFSQTTICRFEALQLSFKNMCKLKPLLNKWLEEAD [L3V], the abundance fitness was -0.318 ± 0.11. On the same count and under the same terms, to DDPEQFAKQFKQRRIKLGFTQADVGLALGTLYGNVFSQTTICRFEALQLSFKNMCKLKPLLNKWLEEAD [L3P] belongs -0.755 ± 0.24; to DDQEQFAKQFKQRRIKLGFTQADVGLALGTLYGNVFSQTTICRFEALQLSFKNMCKLKPLLNKWLEEAD [L3Q], -0.421 ± 0.38; to DDYEQFAKQFKQRRIKLGFTQADVGLALGTLYGNVFSQTTICRFEALQLSFKNMCKLKPLLNKWLEEAD [L3Y], -0.242 ± 0.2. The same measure, in the same setting: the value for DDEEQFAKQFKQRRIKLGFTQADVGLALGTLYGNVFSQTTICRFEALQLSFKNMCKLKPLLNKWLEEAD [L3E] was -0.43 ± 0.31; that for DDIEQFAKQFKQRRIKLGFTQADVGLALGTLYGNVFSQTTICRFEALQLSFKNMCKLKPLLNKWLEEAD [L3I] was -0.161 ± 0.27; that for DDTEQFAKQFKQRRIKLGFTQADVGLALGTLYGNVFSQTTICRFEALQLSFKNMCKLKPLLNKWLEEAD [L3T] was -0.981 ± 0.33. On the same count and under the same terms, to DDFEQFAKQFKQRRIKLGFTQADVGLALGTLYGNVFSQTTICRFEALQLSFKNMCKLKPLLNKWLEEAD [L3F] belongs -0.454 ± 0.49; to DDGEQFAKQFKQRRIKLGFTQADVGLALGTLYGNVFSQTTICRFEALQLSFKNMCKLKPLLNKWLEEAD [L3G], -0.758 ± 0.18.

For the variant DDWEQFAKQFKQRRIKLGFTQADVGLALGTLYGNVFSQTTICRFEALQLSFKNMCKLKPLLNKWLEEAD [L3W], the abundance fitness is -0.587 ± 0.17.

For DDAEQFAKQFKQRRIKLGFTQADVGLALGTLYGNVFSQTTICRFEALQLSFKNMCKLKPLLNKWLEEAD [L3A], the abundance fitness is -1 ± 0.32.

Consider DDREQFAKQFKQRRIKLGFTQADVGLALGTLYGNVFSQTTICRFEALQLSFKNMCKLKPLLNKWLEEAD [L3R], for which the abundance fitness is -0.937 ± 0.19.

The variants in another data set derive from B2. The description is as above. The conditions noted are these: Homo sapiens.
Turning to RDEMEEWSASEAELFEEALEKYGKDFNDIRQDFLPWKSLTSIIEYYYMWKTTD [S13E], the abundance fitness was found to be 0.158 ± 0.11. On the same count and under the same terms, the value for RDEMEEWSASEAFLFEEALEKYGKDFNDIRQDFLPWKSLTSIIEYYYMWKTTD [S13F] was -0.436 ± 0.16; that for RDEMEEHSASEASLFEEALEKYGKDFNDIRQDFLPWKSLTSIIEYYYMWKTTD [W7H] was -0.909 ± 0.14.

Take RDEMEEMSASEASLFEEALEKYGKDFNDIRQDFLPWKSLTSIIEYYYMWKTTD [W7M]: the abundance fitness was -1 ± 0.36. The same measure, in the same setting: to RDEMEEWSASEASLFEEALEKGGKDFNDIRQDFLPWKSLTSIIEYYYMWKTTD [Y22G] belongs -0.625 ± 0.15; to RDEMEEWSASEASLFEEALEKEGKDFNDIRQDFLPWKSLTSIIEYYYMWKTTD [Y22E], -0.856 ± 0.31; to RDEMEEWSASEASLFEEALEKYGKDFNDIRQDFLPWKSLTSIDEYYYMWKTTD [I43D], -1.11 ± 0.35.

Consider RDEMEEWSISEASLFEEALEKYGKDFNDIRQDFLPWKSLTSIIEYYYMWKTTD [A9I], for which the abundance fitness was -0.335 ± 0.2. As for RDEMEEWSLSEASLFEEALEKYGKDFNDIRQDFLPWKSLTSIIEYYYMWKTTD [A9L], the abundance fitness was -0.5 ± 0.11. On the same count and under the same terms, the value for RDEMEEWSASEASLFEEALEKYGKDFNDIRQDFLPWKDLTSIIEYYYMWKTTD [S38D] was -0.71 ± 0.21; that for RDEMEEWSASEASLFEEALEKYGKDFNDIRQDFLPWKSLTSIIEYYQMWKTTD [Y47Q] was 0.329 ± 0.2.

As to RDEMEEWSASEASLFEEALEKYGKDFNDIRQDFLPWKSLTSIIEYYYMWKSTD [T51S], the abundance fitness was -0.068 ± 0.1. The same measure, in the same setting: to RDEMEEWSASEASLFEEALEKYGKDFNDIRQDFLPWKSLTSIIEYYYMLKTTD [W49L] belongs 0.112 ± 0.061; to RDEMEEWSASEASLFEEALEKYGKDFNDIRQDFLPWKSLTFIIEYYYMWKTTD [S41F], -0.54 ± 0.16. Still for that read-out and setting: to RDEMEEWSASEASLFEEALEKYWKDFNDIRQDFLPWKSLTSIIEYYYMWKTTD [G23W] belongs -0.868 ± 0.29. For the variant RDEMEEWSASEASLFEEALEKYYKDFNDIRQDFLPWKSLTSIIEYYYMWKTTD [G23Y], the abundance fitness is -0.353 ± 0.36.

With RDEMEEWSASEASLFEEALEKYIKDFNDIRQDFLPWKSLTSIIEYYYMWKTTD [G23I], the abundance fitness is -1.01 ± 0.24. The same measure, in the same setting: to GDEMEEWSASEASLFEEALEKYGKDFNDIRQDFLPWKSLTSIIEYYYMWKTTD [R1G] belongs 0.335 ± 0.17. The same measure, in the same setting: to LDEMEEWSASEASLFEEALEKYGKDFNDIRQDFLPWKSLTSIIEYYYMWKTTD [R1L] belongs -0.098 ± 0.11; to RDEMEEWSASEASLFEEALEKYGKDFNDIRQDFLPWKSLTSIIRYYYMWKTTD [E44R], 0.079 ± 0.094. The same measure, in the same setting: the value for RDEMEEWSASEASLFEEATEKYGKDFNDIRQDFLPWKSLTSIIEYYYMWKTTD [L19T] was -0.581 ± 0.086; that for RDEMEEWSASCASLFEEALEKYGKDFNDIRQDFLPWKSLTSIIEYYYMWKTTD [E11C] was -0.818 ± 0.21. In the case of RDEMEEWSASEASLFLEALEKYGKDFNDIRQDFLPWKSLTSIIEYYYMWKTTD [E16L], the abundance fitness was -0.557 ± 0.095. Turning to RDEMEEWSASEASLFREALEKYGKDFNDIRQDFLPWKSLTSIIEYYYMWKTTD [E16R], the abundance fitness was -0.427 ± 0.09.

For the variant RDEMEEWSASEASLFNEALEKYGKDFNDIRQDFLPWKSLTSIIEYYYMWKTTD [E16N], the abundance fitness was -0.632 ± 0.29. Still for that read-out and setting: to RDEMEEWSASEASLFEEALEKYGKDFVDIRQDFLPWKSLTSIIEYYYMWKTTD [N27V] belongs -0.246 ± 0.09; to RDEMEEWSASEASLFEEALEKYGKDFWDIRQDFLPWKSLTSIIEYYYMWKTTD [N27W], -0.635 ± 0.27; to RDEMEEWSASEASLFEEALEKYGKDFNDIRQDFLPWKSLTSIIEYYYKWKTTD [M48K], 0.128 ± 0.26. Regarding RDEMEEWSASEASLFEEALEKYGKDFNDIRQDFLPWKSLTSIIEYYYWWKTTD [M48W], the abundance fitness is -0.256 ± 0.12. Take RDEMEEWSASEASLTEEALEKYGKDFNDIRQDFLPWKSLTSIIEYYYMWKTTD [F15T]: the abundance fitness was -0.851 ± 0.14. The same measure, in the same setting: the value for RDEMEEWSASEASLFEAALEKYGKDFNDIRQDFLPWKSLTSIIEYYYMWKTTD [E17A] was -0.598 ± 0.21.
